What all share (experiment): cell-based or functional assay
For one assay, the target named is human GLP-1 receptor (human, UniProt P43220 24-463).
A further assay concerns the target human glucagon receptor (human, UniProt P47871 26-477).
Assay [1] deals with T1, human glucose-dependent insulinotropic peptide (gastric inhibitory polypeptide) receptor (human, UniProt P48546 22-466).
T1 sequence (looked up): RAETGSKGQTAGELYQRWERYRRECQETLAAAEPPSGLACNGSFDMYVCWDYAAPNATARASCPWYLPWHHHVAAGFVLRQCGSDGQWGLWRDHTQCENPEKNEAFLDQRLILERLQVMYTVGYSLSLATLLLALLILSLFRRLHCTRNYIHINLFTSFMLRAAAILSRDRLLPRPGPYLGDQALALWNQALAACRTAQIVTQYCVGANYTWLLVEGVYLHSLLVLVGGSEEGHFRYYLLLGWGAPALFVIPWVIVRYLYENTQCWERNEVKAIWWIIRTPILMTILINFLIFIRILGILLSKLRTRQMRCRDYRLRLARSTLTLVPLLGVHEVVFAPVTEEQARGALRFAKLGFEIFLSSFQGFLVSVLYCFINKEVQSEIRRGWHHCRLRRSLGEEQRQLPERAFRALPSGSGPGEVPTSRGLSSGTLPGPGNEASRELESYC

Numbered stars: 1 amine (or outer) side, 2 acyl side, 3 side chain; on linkers, the order of the positions; unused ones are H or OH. Side chains are listed from the residue outwards. Ends that are not written are not given here. * marks the point of attachment. γGlu = O=C(O)[C@H](CCC(=O)[*:2])N[*:1]; Palmitoyl = CCCCCCCCCCCCCCCC(=O)*

Chain of human glucagon receptor (P47871 26-477): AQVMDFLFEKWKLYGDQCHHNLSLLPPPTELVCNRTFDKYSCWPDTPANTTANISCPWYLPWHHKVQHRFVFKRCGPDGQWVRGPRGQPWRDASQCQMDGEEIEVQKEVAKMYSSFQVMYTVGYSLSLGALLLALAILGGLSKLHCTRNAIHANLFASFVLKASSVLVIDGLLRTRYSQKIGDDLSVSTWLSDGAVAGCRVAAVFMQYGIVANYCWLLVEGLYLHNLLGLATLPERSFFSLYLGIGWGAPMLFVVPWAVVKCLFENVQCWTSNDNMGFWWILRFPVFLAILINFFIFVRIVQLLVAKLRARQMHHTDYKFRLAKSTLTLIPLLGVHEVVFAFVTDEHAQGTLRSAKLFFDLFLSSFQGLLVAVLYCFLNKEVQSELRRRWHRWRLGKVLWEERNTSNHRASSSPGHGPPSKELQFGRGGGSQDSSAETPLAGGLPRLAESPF

As for HSQGTFTSDYSKYLDSRRAQDFVQWLVAGGSSGGSSK-NH2 [g317], in the assay with human GLP-1 receptor, the “cAMP EC50 (assay 1)” value is 2.63 nM.

Regarding HSQGTFTSDYSKYLDSRRAQDFVQWLVAGGGGGGK-NH2 [g325], the “cAMP EC50 (assay 1)” value is 0.0103 nM with human glucagon receptor and 0.0261 nM with human GLP-1 receptor.

As to HSQGTFTSDYSKYLDSRRAQDFVQWLVAGGPSSGAPPPSK-NH2 [g319], the results for the “cAMP EC50 (assay 1)” value with human glucagon receptor and with human GLP-1 receptor were 0.0104 nM and 0.0361 nM, respectively.

B1: g701 (peptide)
peptide: HSQGTFTSDYSK([γGlu-Palmitoyl])YLDSRRAQDFVQWLERGG-NH2
modifications: N-terminus assumed
SMILES: CCCCCCCCCCCCCCCC(=O)N[C@@H](CCC(=O)NCCCC[C@H](NC(=O)[C@H](CO)NC(=O)[C@H](Cc1ccc(O)cc1)NC(=O)[C@H](CC(=O)O)NC(=O)[C@H](CO)NC(=O)[C@@H](NC(=O)[C@H](Cc1ccccc1)NC(=O)[C@@H](NC(=O)CNC(=O)[C@H](CCC(N)=O)NC(=O)[C@H](CO)NC(=O)[C@@H](N)Cc1c[nH]cn1)[C@@H](C)O)[C@@H](C)O)C(=O)N[C@@H](Cc1ccc(O)cc1)C(=O)N[C@@H](CC(C)C)C(=O)N[C@@H](CC(=O)O)C(=O)N[C@@H](CO)C(=O)N[C@@H](CCCNC(=N)N)C(=O)N[C@@H](CCCNC(=N)N)C(=O)N[C@@H](C)C(=O)N[C@@H](CCC(N)=O)C(=O)N[C@@H](CC(=O)O)C(=O)N[C@@H](Cc1ccccc1)C(=O)N[C@H](C(=O)N[C@@H](CCC(N)=O)C(=O)N[C@@H](Cc1c[nH]c2ccccc12)C(=O)N[C@@H](CC(C)C)C(=O)N[C@@H](CCC(=O)O)C(=O)N[C@@H](CCCNC(=N)N)C(=O)NCC(=O)NCC(N)=O)C(C)C)C(=O)O
As to B1, the “cAMP EC50 (assay 1)” value with human glucagon receptor stood at 3.83 nM; with human GLP-1 receptor it was 7.4 nM.

As to HSQGTFTSDYSKYLDSRRAQDFVQWLVAGGSGSGSG-NH2 [g402], the “cAMP EC50 (assay 1)” value turned out to be 0.0596 nM with human glucagon receptor and 0.0857 nM with human GLP-1 receptor.

B2: g728 (peptide)
peptide: HSQGTFTSDYSK([γGlu-Palmitoyl])YLDSRRAQDFVQWLVAGG-NH2
modifications: N-terminus assumed
SMILES: CCCCCCCCCCCCCCCC(=O)N[C@@H](CCC(=O)NCCCC[C@H](NC(=O)[C@H](CO)NC(=O)[C@H](Cc1ccc(O)cc1)NC(=O)[C@H](CC(=O)O)NC(=O)[C@H](CO)NC(=O)[C@@H](NC(=O)[C@H](Cc1ccccc1)NC(=O)[C@@H](NC(=O)CNC(=O)[C@H](CCC(N)=O)NC(=O)[C@H](CO)NC(=O)[C@@H](N)Cc1c[nH]cn1)[C@@H](C)O)[C@@H](C)O)C(=O)N[C@@H](Cc1ccc(O)cc1)C(=O)N[C@@H](CC(C)C)C(=O)N[C@@H](CC(=O)O)C(=O)N[C@@H](CO)C(=O)N[C@@H](CCCNC(=N)N)C(=O)N[C@@H](CCCNC(=N)N)C(=O)N[C@@H](C)C(=O)N[C@@H](CCC(N)=O)C(=O)N[C@@H](CC(=O)O)C(=O)N[C@@H](Cc1ccccc1)C(=O)N[C@H](C(=O)N[C@@H](CCC(N)=O)C(=O)N[C@@H](Cc1c[nH]c2ccccc12)C(=O)N[C@@H](CC(C)C)C(=O)N[C@H](C(=O)N[C@@H](C)C(=O)NCC(=O)NCC(N)=O)C(C)C)C(C)C)C(=O)O
On to B2, for which the “cAMP EC50 (assay 1)” value turned out to be 2.44 nM in the assay with human glucagon receptor and 395 nM in assay [1].

B3: g747 (peptide)
peptide: HSQGTFTSDYSKYLDSRRAQDFVQWLEAGGK([γGlu-Palmitoyl])-NH2
modifications: N-terminus assumed
SMILES: CCCCCCCCCCCCCCCC(=O)N[C@@H](CCC(=O)NCCCC[C@H](NC(=O)CNC(=O)CNC(=O)[C@H](C)NC(=O)[C@H](CCC(=O)O)NC(=O)[C@H](CC(C)C)NC(=O)[C@H](Cc1c[nH]c2ccccc12)NC(=O)[C@H](CCC(N)=O)NC(=O)[C@@H](NC(=O)[C@H](Cc1ccccc1)NC(=O)[C@H](CC(=O)O)NC(=O)[C@H](CCC(N)=O)NC(=O)[C@H](C)NC(=O)[C@H](CCCNC(=N)N)NC(=O)[C@H](CCCNC(=N)N)NC(=O)[C@H](CO)NC(=O)[C@H](CC(=O)O)NC(=O)[C@H](CC(C)C)NC(=O)[C@H](Cc1ccc(O)cc1)NC(=O)[C@H](CCCCN)NC(=O)[C@H](CO)NC(=O)[C@H](Cc1ccc(O)cc1)NC(=O)[C@H](CC(=O)O)NC(=O)[C@H](CO)NC(=O)[C@@H](NC(=O)[C@H](Cc1ccccc1)NC(=O)[C@@H](NC(=O)CNC(=O)[C@H](CCC(N)=O)NC(=O)[C@H](CO)NC(=O)[C@@H](N)Cc1c[nH]cn1)[C@@H](C)O)[C@@H](C)O)C(C)C)C(N)=O)C(=O)O
As to B3, the “cAMP EC50 (assay 1)” value with human glucagon receptor turned out to be 0.0942 nM; in the assay with human GLP-1 receptor it was 3.16 nM; in assay [1], 1040 nM.

B4: g702 (peptide)
peptide: HSQGTFTSDYSK([γGlu-Palmitoyl])YLDSRRAQDFVQWLVAGG-NH2
modifications: N-terminus assumed
SMILES: CCCCCCCCCCCCCCCC(=O)N[C@@H](CCC(=O)NCCCC[C@H](NC(=O)[C@H](CO)NC(=O)[C@H](Cc1ccc(O)cc1)NC(=O)[C@H](CC(=O)O)NC(=O)[C@H](CO)NC(=O)[C@@H](NC(=O)[C@H](Cc1ccccc1)NC(=O)[C@@H](NC(=O)CNC(=O)[C@H](CCC(N)=O)NC(=O)[C@H](CO)NC(=O)[C@@H](N)Cc1c[nH]cn1)[C@@H](C)O)[C@@H](C)O)C(=O)N[C@@H](Cc1ccc(O)cc1)C(=O)N[C@@H](CC(C)C)C(=O)N[C@@H](CC(=O)O)C(=O)N[C@@H](CO)C(=O)N[C@@H](CCCNC(=N)N)C(=O)N[C@@H](CCCNC(=N)N)C(=O)N[C@@H](C)C(=O)N[C@@H](CCC(N)=O)C(=O)N[C@@H](CC(=O)O)C(=O)N[C@@H](Cc1ccccc1)C(=O)N[C@H](C(=O)N[C@@H](CCC(N)=O)C(=O)N[C@@H](Cc1c[nH]c2ccccc12)C(=O)N[C@@H](CC(C)C)C(=O)N[C@H](C(=O)N[C@@H](C)C(=O)NCC(=O)NCC(N)=O)C(C)C)C(C)C)C(=O)O
Turning to B4, the “cAMP EC50 (assay 1)” value with human glucagon receptor was found to be 1.49 nM.

As to HSQGTFTSDYSKYLDSRRAQDFVQWLVAGGSSGGSS-NH2 [g316], the results for the “cAMP EC50 (assay 1)” value (with human glucagon receptor; with human GLP-1 receptor; in assay [1]) were 0.0106 nM, 0.0314 nM and 3.65 nM, respectively.

B5: g318 (peptide)
peptide: HSQGTFTSDYSKYLDSRRAQDFVQWLVAGGSSGGSSK(Palmitoyl)-NH2
modifications: N-terminus assumed
SMILES: CCCCCCCCCCCCCCCC(=O)NCCCC[C@H](NC(=O)[C@H](CO)NC(=O)[C@H](CO)NC(=O)CNC(=O)CNC(=O)[C@H](CO)NC(=O)[C@H](CO)NC(=O)CNC(=O)CNC(=O)[C@H](C)NC(=O)[C@@H](NC(=O)[C@H](CC(C)C)NC(=O)[C@H](Cc1c[nH]c2ccccc12)NC(=O)[C@H](CCC(N)=O)NC(=O)[C@@H](NC(=O)[C@H](Cc1ccccc1)NC(=O)[C@H](CC(=O)O)NC(=O)[C@H](CCC(N)=O)NC(=O)[C@H](C)NC(=O)[C@H](CCCNC(=N)N)NC(=O)[C@H](CCCNC(=N)N)NC(=O)[C@H](CO)NC(=O)[C@H](CC(=O)O)NC(=O)[C@H](CC(C)C)NC(=O)[C@H](Cc1ccc(O)cc1)NC(=O)[C@H](CCCCN)NC(=O)[C@H](CO)NC(=O)[C@H](Cc1ccc(O)cc1)NC(=O)[C@H](CC(=O)O)NC(=O)[C@H](CO)NC(=O)[C@@H](NC(=O)[C@H](Cc1ccccc1)NC(=O)[C@@H](NC(=O)CNC(=O)[C@H](CCC(N)=O)NC(=O)[C@H](CO)NC(=O)[C@@H](N)Cc1c[nH]cn1)[C@@H](C)O)[C@@H](C)O)C(C)C)C(C)C)C(N)=O
Regarding B5, the “cAMP EC50 (assay 1)” value with human glucagon receptor came to 9.04 nM; with human GLP-1 receptor it was 1.14 nM.

For HSQGTFTSDYSKYLDSRRAQDFVQWLVAGGGGGG-NH2 [g315], the “cAMP EC50 (assay 1)” value was 0.00504 nM with human glucagon receptor, 0.0273 nM in the assay with human GLP-1 receptor and 19.7 nM in assay [1].

As to HSQGTFTSDYSKYLDSRRAQDFVQWLEAGG-NH2 [g840], the “cAMP EC50 (assay 1)” value with human glucagon receptor turned out to be 0.0053 nM; in the assay with human GLP-1 receptor, 0.145 nM; in assay [1], 102 nM.

With HSQGTFTSDYSKYLDSRRAQDFVQWLVAGGPSSGAPPPSK(Palmitoyl)-NH2 [g320], the “cAMP EC50 (assay 1)” value worked out at 0.0032 nM in the assay with human glucagon receptor, 0.00938 nM in the assay with human GLP-1 receptor and 1.01 nM in assay [1].

The values are drawn from patent publication US20220098265A1 (MEDIMMUNE LIMITED, priority 2012, published 2022).
